This note sets out measurements from paper PMC10307831, “GATA zinc finger protein p66β promotes breast cancer cell migration by acting as a co-activator of Snail”.

The target in data set [1] is GST-Snail;Flag-p66β (human?;human?, UniProt O95863;Q8WXI9 1-264;1-593, |). Kind of data set: pull-down; p66β enhanced Snail binding; EMSA: 10 mM Tris pH 7.5, 50 mM KCl, 1 mM DTT, 5 mM MgCl2, 2.5% glycerol, 0.05% NP-40, 50 ng/ul poly(dI.dC), 600 fmol probe, 12 ug GST protein in 20 ul; gel 6% 0.5x TBE 4 C. Pull-down: NeutrAvidin beads, 8 h 4 C, washed in IP buffer (50 mM Tris pH 7.5, 150 mM NaCl, 1% Triton X-100). Conditions: protein: recombinant;recombinant; tags: N-terminal GST (pGEX-4T-1);Flag; label: biotin (probe); blunt.
GST-Snail;Flag-p66β, sequence (O95863 whole entry, chain 1 of 2): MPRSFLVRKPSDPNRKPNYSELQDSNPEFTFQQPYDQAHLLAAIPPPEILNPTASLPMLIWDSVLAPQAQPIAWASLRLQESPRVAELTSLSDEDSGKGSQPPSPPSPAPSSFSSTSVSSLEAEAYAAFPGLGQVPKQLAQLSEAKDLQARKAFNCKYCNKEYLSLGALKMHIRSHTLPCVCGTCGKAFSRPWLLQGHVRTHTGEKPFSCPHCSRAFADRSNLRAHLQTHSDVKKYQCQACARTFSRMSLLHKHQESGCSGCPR
GST-Snail;Flag-p66β, sequence (Q8WXI9 whole entry, chain 2 of 2): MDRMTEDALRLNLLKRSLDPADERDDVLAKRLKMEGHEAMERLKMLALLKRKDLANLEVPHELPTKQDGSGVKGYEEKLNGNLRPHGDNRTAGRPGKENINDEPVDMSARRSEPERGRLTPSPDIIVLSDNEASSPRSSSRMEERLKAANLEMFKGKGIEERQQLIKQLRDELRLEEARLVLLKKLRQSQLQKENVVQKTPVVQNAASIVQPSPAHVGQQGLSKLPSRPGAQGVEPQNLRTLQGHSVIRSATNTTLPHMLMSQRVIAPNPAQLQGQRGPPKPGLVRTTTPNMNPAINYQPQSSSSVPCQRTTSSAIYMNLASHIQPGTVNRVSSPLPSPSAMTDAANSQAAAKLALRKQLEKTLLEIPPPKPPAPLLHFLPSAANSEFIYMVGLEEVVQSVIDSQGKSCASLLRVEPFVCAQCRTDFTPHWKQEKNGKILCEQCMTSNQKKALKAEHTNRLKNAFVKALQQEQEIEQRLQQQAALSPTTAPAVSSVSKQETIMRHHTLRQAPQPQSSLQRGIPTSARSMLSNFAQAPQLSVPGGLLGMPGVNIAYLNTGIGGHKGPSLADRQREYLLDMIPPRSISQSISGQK

Data set [2] has as its target GST-Snail-ΔZn (zinc finger mutant) (UniProt O95863 1-264, H176D;C180A;C210D;H230D;H252D;C259A). Briefly: pull-down; EMSA: 10 mM Tris pH 7.5, 50 mM KCl, 1 mM DTT, 5 mM MgCl2, 2.5% glycerol, 0.05% NP-40, 50 ng/ul poly(dI.dC), 600 fmol probe, 12 ug GST protein in 20 ul; gel 6% 0.5x TBE 4 C. Pull-down: NeutrAvidin beads, 8 h 4 C, washed in IP buffer (50 mM Tris pH 7.5, 150 mM NaCl, 1% Triton X-100). To be noted: protein: recombinant; tags: N-terminal GST; label: biotin (probe); blunt.

GST-Snail-ΔZn (zinc finger mutant), sequence (O95863 whole entry H176D/C180A/C210D/H230D/H252D/C259A): as the sequence (O95863 whole entry, chain 1 of 2) above, with H176D, C180A, C210D, H230D, H252D, C259A counted along it

B1: COL6A2-G-box-WT (dsDNA)
DNA 1: GGCCCCCTCCTCCCATCCGCG
DNA 2: CGCGGATGGGAGGAGGGGGCC
Take B1: the figures for the binding result in data set [1] and in data set [2] were “binds” and “no binding”, respectively.
